Assay results as given in patent US11660961B2, “Host cells and methods for producing isopentenol from mevalonate” (The Regents of the University of California, priority 2015, dated 2023).

Key:
[1] = tested on: E. coli; settings: intracellular accumulation in pathway II strains
[2] = In vitro hydrolysis of IP to isopentenol (purified enzyme or cell lysates); format: biochemical; settings: purified NudB or lysates of cells overexpressing the phosphatase
Protocol: To identify IP-hydrolyzing endogenous phosphatases, single gene knockout mutants of 36 phosphatases, of which substrates are mostly mono-phosphorylated metabolites, are retrieved from the Keio collection (Baba et al., 2006). 1 mL overnight cultures from each mutant are concentrated in 0.5 mL of 50 mM Tris-HCl (pH 8.0) buffer containing 1 mM DTT and ˜50 mg of glass beads (<100 μm, Sigma-Aldrich, USA). Cells are lysed by bead-beating for 2 min at 6.0 M/s (MP biomedicals Fast Prep, USA). After centrifugation of cell lysates at 20,000 g for 10 min, clear supernatant is used for assay reaction containing 0.5 mM isopentenyl monophosphate (IP). An equal volume of ethyl acetate is added to 100 μL of assay reaction after incubating overnight at 30° C., and isopentenol is extracted for 10 min by vigorous mixing.
Coding sequences of agp, aphA, and yqaB are amplified from BW25113 genome by PCR, and they are subsequently cloned to pBbE1a vector (Lee et al., 2011) for over-expression. Expression of these three genes are induced by addition of 0.5 mM IPTG to the cell cultures, and cell lysates of each sample are prepared with three biological replicates as described above for screening of the 36 mutants. 600 μL of assay reactions containing cell lysates, 1 mM DTT are prepared and the reaction is initiated by addition of 0.5 mM IP. […] Quantification of metabolites

[3] = In vitro hydrolysis of IPP by purified Nudix hydrolase; format: biochemical; settings: purified enzyme with IPP; up to 16 hours
Protocol: All metabolites are analyzed by liquid chromatography mass spectrometry (LC-MS; Agilent Technologies 1200 Series HPLC system and Agilent Technologies 6210 time-of-flight mass spectrometer) on a ZIC-HILIC column (150 mm length, 2.1-mm internal diameter, and 3.5-μm particle size). Standard chemicals (IPP and IP) are purchased from Sigma-Aldrich (USA). Metabolites are eluted isocratically with a mobile phase composition of 64% (v/v) acetonitrile containing 50 mM ammonium acetate with a flow rate of 0.15 mL/min. IPP and IP from E. coli extracts or enzyme assay are quantified via […] calibration curves ranging from 781.25 nM to 200 μM.

[4] = tested on: E. coli BW25113; test: Isopentenol production in E. coli; format: cell-based, Escherichia coli; settings: expressed in IPP-bypass pathway II in E. coli
Protocol: E. coli BW25113 harboring two plasmids is used for isopentenol production. Seed cultures of all production strains are prepared by growing single colonies in LB medium containing 100 μg/mL ampicillin and 30 μg/mL chloramphenicol overnight at 37° C. with shaking at 200 rpm. The seed cultures are diluted in EZ-Rich defined medium (Teknova, USA) containing 10 g/L glucose (1%, w/v), 100 μg/mL ampicillin and 30 μg/mL chloramphenicol. The E. coli cell cultures are incubated in rotary shakers (200 rpm) at 37° C., and 0.5 mM IPTG is added to induce protein expression at OD600 of 0.6-0.8. To provide different levels of aeration, identical volumes of the cell culture are split into two flasks for incubation at 30° C. with shaking at either 200 rpm or 30 rpm.
For isopentenol quantification, 250 μL of cell culture is combined with 250 μL of ethyl acetate containing 1-butanol (30 mg/L) as an internal standard. This mixture of ethyl acetate and cell culture is vigorously shaken for 15 min and subsequently centrifuged at 13,000 g for 2 min to separate ethyl acetate from the aqueous phase. 100 μL of the ethyl acetate layer was diluted 5-fold, and 1 μL is analyzed by Agilent GCMS equipped with Cyclosil-B column (Agilent, USA) or Thermo GCFID equipped with DB-WAX column (Agilent, USA) for quantitation of isopentenol.

In the case of `C[C@@](O)(CCOP(=O)(O)O)CC(=O)O` [MVAP, MVA monophosphate], the “toxicity of accumulated metabolite to cells” value [1] is reported as “without any significant toxicity”.

B1: NudB: phosphatase (Nudix hydrolase) from E. coli (protein, UniProt P0AFC0 1-150, looked up)
Dihydroneopterin triphosphate …: MKDKVYKRPVSILVVIYAQDTKRVLMLQRRDDPDFWQSVTGSVEEGETAPQAAMREVKEEVTIDVVAEQLTLIDCQRTVEFEIFSHLRHRYAPGVTRNTESWFCLALPHERQIVFTEHLAYKWLDAPAAAALTKSWSNRQAIEQFVINAA
In the case of B1, the “hydrolysis of IP to isopentenol” value [2] is reported as “do not show the activity of hydrolyzing IP to Isopentenol” and the IPP hydrolysis product [3] is reported as “produces only IP”.

B2: aphA: E. coli-endogenous phosphatase found to hydrolyze IP to isopentenol (protein, UniProt P0AE22 26-237, looked up)
Class B acid phosphatase: SSPSPLNPGTNVARLAEQAPIHWVSVAQIENSLAGRPPMAVGFDIDDTVLFSSPGFWRGKKTFSPESEDYLKNPVFWEKMNNGWDEFSIPKEVARQLIDMHVRRGDAIFFVTGRSPTKTETVSKTLADNFHIPATNMNPVIFAGDKPGQNTKSQWLQDKNIRIFYGDSDNDITAARDVGARGIRILRASNSTYKPLPQAGAFGEEVIVNSEY
With B2 the “effect on in vivo isopentenol production” value [4] was “does not significantly increase the isopentenol production” and the “hydrolysis of IP to isopentenol” value [2] was “significantly higher and faster hydrolysis activity on IP”.
